# Source: paper PMC4338372 (FEBS Open Bio, 2015)
# B1: GST-fused SH3 domain of Hck (GST-SH3Hck) (domain or fragment)
# chain: not shown
# Columns and labels:
# [1] = target: 6His-tagged ELMO1 C-terminal domain with the polyproline motif (ELMO_(532–727)) (mouse, UniProt Q8BPU7 532-727); assay: ELISA
# [2] = target: ^15N-labeled SH3 domain of Hck (SH3Hck), GST tag cleaved (UniProt P08631 77-141, uniformly ^15N labeled); assay: NMR titration
# Chain of ^15N-labeled SH3 domain of Hck (SH3Hck), GST tag cleaved (P08631 77-141): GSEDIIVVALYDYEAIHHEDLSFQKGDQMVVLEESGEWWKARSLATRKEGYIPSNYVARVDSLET
Binder,Kd [1] [µM],Kd [2] [µM]
B1,~10,–
DLENIQIPDAPPPIPKEPSNYDFVYDCN [ELMO_(700–727) peptide (28 C-terminal amino-acids of ELMO1)],–,1600 ± 300
